Target: T1, Aspergillus ochraceus 11 alpha hydroxylase
T1 chain: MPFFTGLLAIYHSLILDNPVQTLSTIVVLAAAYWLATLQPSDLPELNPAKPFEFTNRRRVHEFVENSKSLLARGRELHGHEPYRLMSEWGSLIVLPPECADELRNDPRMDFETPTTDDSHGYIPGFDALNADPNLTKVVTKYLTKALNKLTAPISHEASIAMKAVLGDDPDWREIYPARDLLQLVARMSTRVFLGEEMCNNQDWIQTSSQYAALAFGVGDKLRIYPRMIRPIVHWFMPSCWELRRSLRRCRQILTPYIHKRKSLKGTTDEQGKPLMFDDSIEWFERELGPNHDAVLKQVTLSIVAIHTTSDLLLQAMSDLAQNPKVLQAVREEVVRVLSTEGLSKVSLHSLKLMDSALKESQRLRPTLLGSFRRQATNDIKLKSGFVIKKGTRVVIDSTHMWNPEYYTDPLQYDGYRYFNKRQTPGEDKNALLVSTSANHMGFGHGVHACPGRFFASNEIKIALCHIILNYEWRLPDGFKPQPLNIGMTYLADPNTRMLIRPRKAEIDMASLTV

B1: human oxidoreductase (protein)
chain: MGDSHVDTSSTVSEAVAEEVSLFSMTDMILFSLIVGLLTYWFLFRKKKEEVPEFTKIQTLTSSVRESSFVEKMKKTGRNIIVFYGSQTGTAEEFANRLSKDAHRYGMRGMSADPEEYDLADLSSLPEIDNALVVFCMATYGEGDPTDNAQDFYDWLQETDVDLSGVKFAVFGLGNKTYEHFNAMGKYVDKRLEQLGAQRIFELGLGDDDGNLEEDFITWREQFWPAVCEHFGVEATGEESSIRQYELVVHTDIDAAKVYMGEMGRLKSYENQKPPFDAKNPFLAAVTTNRKLNQGTERHLMHLELDISDSKIRYESGDHVAVYPANDSALVNQLGKILGADLDVVMSLNNLDEESNKKHPFPCPTSYRTALTYYLDITNPPRTNVLYELAQYASEPSEQELLRKMASSSGEGKELYLSWVVEARRHILAILQDCPSLRPPIDHLCELLPRLQARYYSIASSSKVHPNSVHICAVVVEYETKAGRINKGVATNWLRAKEPAGENGGRALVPMFVRKSQFRLPFKATTPVIMVGPGTGVAPFIGFIQERAWLRQQGKEVGETLLYYGCRRSDEDYLYREELAQFHRDGALTQLNVAFSREQSHKVYVQHLLKQDREHLWKLIEGGAHIYVCGDARNMARDVQNTFYDIVAELGAMEHAQAVDYIKKLMTKGRYSLDVWS
- conversion of 4-androstene-3,17-dione (AD) to 11 alpha-hydroxy-AD, by HPLC: successfully catalyzed the conversion of the steroid substrate 4-androstene-3,17-dione (AD) to 11 alpha-hydroxy-AD

— US20030148420
